# The nanobody polyreactivity screen of Harvey et al. (2022)
# Assay: yeast display, Sf9 membrane polyspecificity reagent, FACS + sequencing; frameworks hold sequencing errors
# Method in brief: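 After 36–48 hours of galactose induction, yeast (Saccharomyces cerevisiae BJ5465) displaying a synthetic nanobody library were stained at 4 °C for 1 hour with 10% biotinylated, detergent-solubilized Sf9 membrane reagent. Streptavidin microbeads enriched the stained cells before FACS sorting into low and high (top ~1%) gates on anti-HA and streptavidin fluorescence. Each clone's polyreactivity label reflects its gate of origin.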
row,Sequence,polyreactivity (PSR sort gate)
1,QVQLVESGGGLVQAGGSLRLSCAASGFTFDDYAMGWYRQAPGKERELVAAISWSGGSTYYADSVKGRFTISRDNAKNTVYLQMNSLKPEDTAVYYCAALRTGAQYSTMDYWGQGTQVTVSS,low polyreactivity
2,QVQLVESGGGLVQAGGSLRLSCAASGFTFDDYVMGWYRQAPGKERELVAAISRSGGSTYYADSVKGRFTISRDNAKNTVYLQMNSLKPEDTAVYYCAARTYSWGDWGQGTQVTVSS,high polyreactivity
3,QVQLVESGGGLVQAGGSLRLSCAASGFTFDFYAMGWYRQAPGKERELVAAISKNDGTTYYADSVKGRFTISRDNAKNTVYLQMNSLKPEDTAVYYCAAESGYPVYTYVSSGDYWGQGTQVTVSS,low polyreactivity
4,QVQLVESGGGLVQAGGSLRLSCAASGFTFDFYAMGWYRQAPGKERELVASIRWSGGSTYYADSVKGRFTISRDNAKNTVYLQMNSLKPEDTAVYYCAKSIASAAYDSWGQGTQVTVSS,low polyreactivity
5,QVQLVESGGGLVQAGGSLRLSCAASGFTFDFYVMGWYRPAPGTERELVAANSWDGGTTYYADSVKGRFTISRDNAKNTVYLQLNSLKPEDTAVYYCAADDWVYVPTGAWYLYEYWGQGTQVTVSS,high polyreactivity
6,QVQLVESGGGLVQAGGSLRLSCAASGFTFDGYAMGWDRQAPGKESELVAAISDSGDSTYYADSVKGRFTISRDNAKNTVYLQMNSLTPEDTAVYYCAAGLGYYWSDYFADDSCGQGTQVTVSS,low polyreactivity
7,QVQLVESGGGLVQAGGSLRLSCAASGFTFDINAMGWSRQAPGKERELVAAISRSGGRTYYADSVKGRFTISRDNAKNTVYLQMNSLKPDDTAVYYCAARYPERRYNTFDYWGQGTQVTVSS,high polyreactivity
8,QVQLVESGGGLVQAGGSLRLSCAASGFTFDIYAMGWYRQAPGKERELVATISRSGGTTYYADSVKGRFTISRDNAKNTVYLQMNSLKPEDTAVYYCNAGRYYIGGYWGQGTQVTVSS,high polyreactivity
9,QVQLVESGGGLVQAGGSLRLSCAASGFTFDIYAMGWYRQAPGKEREMVADITSGGSTDYADSVKGRFTISRDNAKNTVYLQMNSLKPEDTAVYYCNGAVFYDPEWQYDYWGQGSQVTVSS,low polyreactivity
10,QVQLVESGGGLVQAGGSLRLSCAASGFTFDKNTMGWYRQAPGKERELVAAITRGGGSTYYADSVKGRFTISRDNAKNTVYLQMNSLKPEDTAVYYCAARYWTKRYRLLDYWGQGTQVTVSS,high polyreactivity
11,QVQLVESGGGLVQAGGSLRLSCAASGFTFDLYAMGWYRQAPGKERELVAAISWSGGSTRYADSVKGRFTISRDNAKNTVYLQMNSLKPEDTAVYYCARQPRLYFKGKLYGYWGQGTQVTVSS,high polyreactivity
12,QVQLVESGGGLVQAGGSLRLSCAASGFTFDRNAMGWYRQAPGKERGLVAAISSSGGRTYYADSVKGRFTISRDNAKNTVYLQMNSLKPEDTAVYYCAATSSYSYDYWGQGTQVTVSS,high polyreactivity
13,QVQLVESGGGLVQAGGSLRLSCAASGFTFDRYANGWYRQAPWKAWELVAAITRRGGSTYYADSVKGRFTISRDNAKKTVYLQMNSLKPEDTAVYYCNARTYVTVDYDYCGQGTQVTVSS,high polyreactivity
14,QVQLVESGGGLVQAGGSLRLSCAASGFTFDSYAMGRYRQAPGKERELVAAISSSGGDSTSYADSVKGRFTISRDNAKNTVYLQMNRLKPEDTAVYYCADEQFYSFIVDDTWFSGFDYWGQGTQVTVSS,low polyreactivity
15,QVQLVESGGGLVQAGGSLRLSCAASGFTFDSYAMGWYRPAPGKERELVAAITSDGSTYYADSVKGRFTISRDNAKNTVYLQMNSLKPEDTAVYYCAARSTARYGYWGQGTQVTVSS,low polyreactivity
16,QVQLVESGGGLVQAGGSLRLSCAASGFTFDSYAMGWYRQAPGKERELVAAITWDGGSTYYADSVKGRYTISRDNAKNTVYLQMNSLKPEETAVYYCAADFGTISIDVYSWMDYWGQGTQVTVSS,low polyreactivity
17,QVQLVESGGGLVQAGGSLRLSCAASGFTFDTNAMGWYRQAPGKERELVAAISWGGDTTYYADSVKGRFTISRDNAKNTVYLQMNSLKPEDTAVYYCNVYWYDWWGYDYWGQGTQVTVSS,high polyreactivity
18,QVQLVESGGGLVQAGGSLRLSCAASGFTFDWNAMGWYRQAPGKERELVAAISSSTGRTYYADSVKGRFTISRDNAKNTVYLQMNSLKPEDTAVYYCAASLGGRAGNYWGQGTQVTVSS,high polyreactivity
19,QVQLVESGGGLVQAGGSLRLSCAASGFTFDWNGMGWYRQAPGKEREFVAGITWSGTSTYADSVKGRFTISRDNAKNTVYLQMNSLKPEDTAVYYCAAVSSKGNRHEYDYWGQGTQVTVSS,low polyreactivity
20,QVQLVESGGGLVQAGGSLRLSCAASGFTFDYNAMGWYRQAPGKEREFDAAISTGGSTKYADSVKGRFTISRDNAKNTVYLQMNSLKPEDTAVYYCNKQTTDRGFYDWKWSGFDYWGQGTQVTVSS,low polyreactivity
21,QVQLVESGGGLVQAGGSLRLSCAASGFTFDYNAMGWYRQAPGKERELVAGITSGGRTYYADSVKGRFTISRDNAKNTVYLQMNSLKPEDTAVYYCAATPEPPAYGTPLVPYSYDYWGQGTQVTVSS,low polyreactivity

row,Sequence,polyreactivity (PSR sort gate)
1,QVQLVESGGGLVQAGGSLRLSCAASGFTFDYYAMGWYRQAPGKERELVAAISKSGGSTYYADSVKGRFTISRDNAKNTVYLQLISLKPEDTAVYYCAAYTYVRSKNKGGDYWGQGTQVTVSS,high polyreactivity
2,QVQLVESGGGLVQAGGSLRLSCAASGFTFDYYAMGWYRQAPGKERELVAAISRAGSTNYADSVKGRFTISRDNAKNTVYLQMNSLKPEDTAVYYCNKGYHSWSRLSQFGWSYDYWGQGTQVTVSS,high polyreactivity
3,QVQLVESGGGLVQAGGSLRLSCAASGFTFDYYFMGWYRQAPGKERELVAAISLRSGRTYYADSVKGRFTISRDNAKNTVYLQMKSLKPEDTAVYYCAAESRGVGAYYYWGQGTQVTVSS,high polyreactivity
4,QVQLVESGGGLVQAGGSLRLSCAASGFTFEENAMGWYRQAPGKERELVAAINWSGGNTYYADSVKGRFTISRDNAKNTVYLQMNSLKPEDTAVYYCAAEYRSWSWRMDYWGQGTQVTVSS,high polyreactivity
5,QVQLVESGGGLVQAGGSLRLSCAASGFTFEKNAMGWYRQAPGKERELVAAISRGGSTYADSVKGRFTISRDNAKNTVYLQMNSLKPEDTAVYYCAADTVYIFSSAINGEFGYWGQGTQVTVSS,low polyreactivity
6,QVQLVESGGGLVQAGGSLRLSCAASGFTFEKNAMGWYRQAPGKERELVAAITSGGSTYYADSVKGRFTISRDNAKNTVYLQMNSLKPEDTAVYYCNAYYTYRFNYWGQGTQVTVSS,high polyreactivity
7,QVQLVESGGGLVQAGGSLRLSCAASGFTFEKYVMGWYRQAPGKDREFVAAITRSGGRTYYADSVKGRFTISRDNAKNTVSLQMNSLKPEDTAVYYCAAAFSRSDTGGGSSGQGTQVTVSS,high polyreactivity
8,QVQLVESGGGLVQAGGSLRLSCAASGFTFERNTMGWYRPAPGKERELVATITRRGTSTYYADSVKGRFTISRDNAKNTVYLQMNSLKPEDTAVYYCARGQYSHRSQAGMDYWGQGTQVTVSS,high polyreactivity
9,QVQLVESGGGLVQAGGSLRLSCAASGFTFERYAMGSYRQAPGKERELVAAISSRGGGTYYADSVKGRFTISRENAKNTVFLQMNSLKPEDTAVYYCNRPYDYSYNYWGQGTQVTVSS,high polyreactivity
10,QVQLVESGGGLVQAGGSLRLSCAASGFTFESYTMGWYRQAPGKESELVAAINSGTSTYYADSVKGRFTISRDNAKNTVYLQMNSLKPEDTAVYYCNARRYRRYRKYDYWGQGTQVTVSS,high polyreactivity
11,QVQLVESGGGLVQAGGSLRLSCAASGFTFEVYAMGRYRQAPGKERELVAAITSSGGRTYYADSVKGRFTISRDYAKNTVYLQMNSLKPEDTAGYYCAAYVSYEYGYWGQGSQVTVSS,high polyreactivity
12,QVQLVESGGGLVQAGGSLRLSCAASGFTFEWNTMGWYRQAPGKERELVARINWSSGRTYYADSVKGRFTISRDNAKNTVYLQMNSLKPEDTAVYYCAASPYHSAYQNMDYWGQGTQVTVSS,high polyreactivity
13,QVQLVESGGGLVQAGGSLRLSCAASGFTFFAYPMGWYRQAPGKERELVAGISRSGGRTYYADSVKGRFTISRDNAKNTVYLQMNSLKPEDTAVYYCNAVVRRSYLLEYDFCGQGTQVTVSS,high polyreactivity
14,QVQLVESGGGLVQAGGSLRLSCAASGFTFFDYVMGWYRQAPGKERELVAAISRNVGSTYYADSVKGRFTISRDNAKTTVYLQMNSLKPEDTAVYYCAAEPPPYEYDYWGQGTQVTVSS,high polyreactivity
15,QVQLVESGGGLVQAGGSLRLSCAASGFTFFEDNAMGWYRQAPGKERELVAAITSGGSTNYADSVKGRFTFSRDNAKNTVYLQMNSLKPEDTAVYYCAKDRVPLKTRFYYFPWGYDYWGQGTQVTVSS,low polyreactivity
16,QVQLVESGGGLVQAGGSLRLSCAASGFTFFGYAMGWYRQAPGKERELVATISDTGGSTYADSVKGRFTISRDNAKNTVYLQMNSLKPEDTAVYYCNARSVFYSMDYWGQGTQVTVSS,low polyreactivity
17,QVQLVESGGGLVQAGGSLRLSCAASGFTFFIYVMGWYRQAPGKEREFVAAISSSGDSTYYADSVKGRFTSSRDNAKNTVYLQMNSLKPEDTAVYYCNAGDKVSSYWYDYWGQGTQVTVSS,low polyreactivity
18,QVQLVESGGGLVQAGGSLRLSCAASGFTFFNYGRGWSRQAHGKERELVAAISSNGGLTYYADSVKGRFTISRDNAKNTVYLQMNSLKPEDTAVYYCATLYYGRVDYDYWGQGTQVTVSS,high polyreactivity
19,QVQLVESGGGLVQAGGSLRLSCAASGFTFFRIYAMGWYRQAPGKERELVAAISRSGSTYADSVKGRFTISRDNAKNTVYLQMNSLKPEDTAVYYCNTTLYADSVWYDYWGQGTQVTVSS,high polyreactivity
20,QVQLVESGGGLVQAGGSLRLSCAASGFTFFRYAMGWYRQAPGKERELVAAISYSGGNTYYADSVKGRFTISRDNAKNTVYLQMNSLKPEDTAVYYCNAVHFWKYDYWGQGTQVTVSS,high polyreactivity
